Assays:
Details in all cases: both partners purified
RBBP4 Glu231Ala = target: T1, RBBP4 Glu231Ala (UniProt Q09028 1-425, Glu231Ala); assay: ITC; AEBP2_(379–390) peptide titrated into RBBP4; one-site binding model, Origin 7
T1 construct: RBBP4 with the mutation Glu231Ala; parent is the wild-type RBBP4 of m1; also called RBBP4 E231A

[1] = target: T2, RBBP4, full-length, wild type (UniProt Q09028 1-425); assay: as above
T2 construct: RBBP4 (also known as RbAp48), full-length; also called RbAp48; apo RBBP4

[2] = target: T3, RBBP4 Glu126Ala/Asn128Ala/Glu179Ala (UniProt Q09028 1-425, Glu126Ala | Asn128Ala | Glu179Ala); assay: as above
T3 construct: RBBP4 with the mutations Glu126Ala/Asn128Ala/Glu179Ala; parent is the wild-type RBBP4 of m1; also called RBBP4 E126A/N128A/E179A

[3] = target: T2, RBBP4, full-length, wild type; assay: SEC; gel filtration on a Superdex 200 10/300 GL column; RBBP4 mixed with excess AEBP2 ZF-RRK, against apo RBBP4 and apo ZF-RRK; SDS-PAGE of the peaks

T2 sequence (Q09028 whole entry): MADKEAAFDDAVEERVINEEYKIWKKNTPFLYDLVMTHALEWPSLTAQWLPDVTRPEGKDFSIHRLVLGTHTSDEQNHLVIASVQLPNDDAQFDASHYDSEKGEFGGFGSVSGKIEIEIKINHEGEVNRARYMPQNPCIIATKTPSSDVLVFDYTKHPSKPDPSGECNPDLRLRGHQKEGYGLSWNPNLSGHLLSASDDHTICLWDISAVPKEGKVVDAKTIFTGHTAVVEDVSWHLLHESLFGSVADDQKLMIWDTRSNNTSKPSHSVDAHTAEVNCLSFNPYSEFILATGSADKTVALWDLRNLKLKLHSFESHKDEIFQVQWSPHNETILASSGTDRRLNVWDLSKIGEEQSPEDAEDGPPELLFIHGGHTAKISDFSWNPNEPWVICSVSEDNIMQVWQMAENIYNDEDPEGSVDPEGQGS
T1 sequence (Q09028 whole entry E231A): as the sequence (Q09028 whole entry) above, with E231A counted along it
T3 sequence (Q09028 whole entry E126A/N128A/E179A): as the sequence (Q09028 whole entry) above, with E126A, N128A, E179A counted along it

B1: AEBP2_(379–390) peptide (RRK-rich motif, residues Lys379–Ser390) (peptide, UniProt Q6ZN18-1 379-390, looked up)
peptide: KRRKLKNKRRRS
notes: AEBP2, human, RRK-rich motif, residues Lys379–Ser390 of Uniprot entry Q6ZN18-1; source: synthetic peptide
- fold reduction of binding affinity against wild-type RBBP4 (RBBP4 Glu231Ala): 5 fold
- Kd [1]: 7.6 ± 0.6 µM
- dH [1]: -15.9 ± 0.395 kcal/mol
- fold reduction of binding affinity against wild-type RBBP4 [2]: 7 fold

B2: AEBP2_(379–390) peptide with mutations Arg380Ala/Lys382Ala (peptide, UniProt Q6ZN18-1 379-390, looked up)
peptide: KARALKNKRRRS
notes: AEBP2, human, residues Lys379–Ser390 of Uniprot entry Q6ZN18-1 with Arg380Ala/Lys382Ala
- fold reduction of binding affinity against the wild-type peptide [1]: ~20 fold

B3: AEBP2 ZF-RRK (ZF1–3 and the RRK-rich motif, residues Asn258–Asp396) (domain or fragment, human, UniProt Q6ZN18-1 258-396, looked up)
chain: NIAYNCCWDQCQACFNSSPDLADHIRSIHVDGQRGGVFVCLWKGCKVYNTPSTSQSWLQRHMLTHSGDKPFKCVVGGCNASFASQGGLARHVPTHFSQQNSSKVSSQPKAKEESPSKAGMNKRRKLKNKRRRSLPRPHD
notes: AEBP2, human, residues Asn258–Asp396 (numbering as for Uniprot entry Q6ZN18-1); also called apo AEBP2 ZF-RRK; source: recombinant protein
- binding result [3]: binds

Reference: article PMC6053351, “Structural and biochemical insights into human zinc finger protein AEBP2 reveals interactions with RBBP4” (Protein & Cell, 2017)
